In one data set the target is T1, ecto-CRT on MC-38 cells (Mus musculus, UniProt P14211).
T1 sequence (P14211 18-416): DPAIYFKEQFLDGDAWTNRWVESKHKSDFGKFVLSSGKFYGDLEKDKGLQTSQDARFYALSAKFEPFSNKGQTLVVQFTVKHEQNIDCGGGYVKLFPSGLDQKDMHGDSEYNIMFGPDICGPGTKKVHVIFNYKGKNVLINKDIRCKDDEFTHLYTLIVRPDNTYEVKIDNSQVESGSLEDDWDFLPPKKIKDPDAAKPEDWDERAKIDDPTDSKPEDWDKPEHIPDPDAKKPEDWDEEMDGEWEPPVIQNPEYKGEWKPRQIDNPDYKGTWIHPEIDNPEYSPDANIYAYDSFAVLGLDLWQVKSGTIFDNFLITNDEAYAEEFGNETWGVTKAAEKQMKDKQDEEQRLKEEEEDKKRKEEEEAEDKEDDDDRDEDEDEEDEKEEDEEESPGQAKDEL
Briefly: Flow cytometry binding to anticancer-agent-treated MC-38 cells. It counts as cell-based. Also noted: endogenous in cells; host or cells: MC-38 mouse colon cancer cells (in culture). As to conditions: for binding to cells: 100 nM protein; for binding after pretreatment with anti-CRT antibodies: MC-38 cells treated with DOX or MTX. The protocol:
Cells were cultured at 37° C. in DMEM medium supplemented with 10% FBS and 100 U of streptomycin/penicillin in an atmosphere of 5% CO2. Cells were treated with each anticancer drug [3 μM methotrexate (MTX), 25 μM […] (DOX), or 15 μM gemcitabine (GEM)] to induce apoptosis (Y. Zhang, et al., Cancers, 13 (11), 2801, 2021). After 4 h of incubation, the cells were scraped and detached from the plate. The cells (10^5) were fixed with 1% PFA for 15 min and then treated with 100 nM of PASylated recombinant proteins for 1 h on ice. After washing five times with cold PBS buffer containing 0.1% Tween-20 (T-PBS), the cells were incubated with anti-His tagged monobodies (diluted to 1:1000) for 1 h and then treated with Alexa Fluor 488-conjugated secondary antibodies (5 μg/mL) for 1 h. Fluorescence signals were detected by FACSCanto II Flow Cytometer (BD Biosciences, USA). For blocking experiments, cells were first incubated with anticancer agents for 4 h and fixed with 1% PFA. Cells were then incubated with anti-CRT antibodies (diluted to1: 400) for 1 h to mask ecto-CRT. Cells were stained with PASylated recombinant proteins and followed the same procedure as described above.
(In general: In flow cytometry, cells or beads pass a laser one at a time.)

The target in data set [1] is T2, recombinant calreticulin protein (rCRT) (Homo sapiens, UniProt P27797).
T2 construct: purchased Abcam
T2 sequence (P27797 18-417): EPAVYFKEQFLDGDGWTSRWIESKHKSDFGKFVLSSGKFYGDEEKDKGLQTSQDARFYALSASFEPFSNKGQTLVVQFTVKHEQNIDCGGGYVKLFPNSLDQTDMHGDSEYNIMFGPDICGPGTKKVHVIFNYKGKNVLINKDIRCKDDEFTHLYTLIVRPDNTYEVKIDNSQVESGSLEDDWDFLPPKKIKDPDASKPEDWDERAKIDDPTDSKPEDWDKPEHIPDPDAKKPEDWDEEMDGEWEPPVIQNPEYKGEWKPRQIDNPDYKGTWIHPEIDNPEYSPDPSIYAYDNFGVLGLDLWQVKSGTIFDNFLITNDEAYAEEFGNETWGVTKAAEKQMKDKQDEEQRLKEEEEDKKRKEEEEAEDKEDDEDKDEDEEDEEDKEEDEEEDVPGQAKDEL
Nature of the data set: Binding affinity of recombinant proteins for CRT by ELISA. The settings on record: for Kd: ELISA, read-out: dissociation constant (Kd) for CRT; for affinity for CRT relative to single CRT3/CRT4 monobody: compared with monobodies of Zhang et al. 2021. On the procedure:
The affinity of the recombinant protein for CRT was measured by enzyme-linked immunosorbent analysis (ELISA) (J. D. Beatty, et al., Journal of immunological methods 100(1-2), 173-179, 1987). In brief, 100 μL of PASylated CRT-targeted L-ASNases coated onto 96-well microplates (0-10 μM/well) overnight at 4° C. Unbound proteins were removed by aspiration from the wells and 100 μL of 10 μM rCRT proteins were added to each well and incubated for 2 h at room temperature. After rCRTs were removed, rabbit anti-CRT antibodies (diluted to 1:500) were added to each well and incubated for 2 h at room temperature. The antibodies were removed by aspiration, and the wells were washed five times with T-PBS. Then, biotin-conjugated anti-rabbit secondary antibodies (diluted to 1:1000) were added and incubated for 1 h. After washing with T-PBS, 100 μL of avidin-HRP (diluted to 1:250) was added to each well and incubated for 30 minutes at room temperature. After aspiration and washing five times, 100 μL of 1×3,3′,5,5′-tetramethylbenzidine (TMB) buffer (Thermo Fisher Scientific, USA) was added to each well to form a […] reaction product. After 15 minutes, 50 μL of 0.5 M H2SO4 solution was added to each well to stop the chromogenic reaction. The amount of colorimetric product was evaluated as the optical density value at 450 nm (OD450) by a SpectraMax M2 microtiter plate reader (Molecular Devices, USA).
(ELISA stands for enzyme-linked immunosorbent assay.)

Data set [2] in a line: In vivo pharmacokinetic analysis. Details: species or system BALB/c mice. As to conditions: 10 IU intravenous, mouse serum. The protocol: Six-week-old female BALB/c mice (Orient Company, Korea) were randomly assigned to different treatment groups (n=3) and intravenously injected with 10 IU of PASylated recombinant protein. Then, blood samples were taken from the eyes at the specified time (0-52 h) and left at 4° C. for 40 min. After centrifugation at 12,000 rpm for 20 min, the serum fraction was obtained and stored at −80° C. before further analysis. PASylated recombinant protein in serum was assessed using the ELISA method described above. The amount of serum recombinant protein was converted to enzyme activity.

The mark [3] stands for this setting: MC-38 cells treated with DOX and MTX.
[4] abbreviates: MC-38 cells with GEM or PBS treatment.

The term Kd denotes the concentration at which binding is half-saturated. One may read the half-life as how long it takes for the measured level to halve. The low end stands for fast loss, the high end for slow loss.

B1: CRT3LP: PASylated L-ASNase fused with CRT-targeting CRT3 monobody at N-terminus and PAS200 tag plus His6 tag at C-terminus (protein)
chain: MASVSDVPRDLEVVAATPTSLLISWKLGFFKRYYRITYGETGGNSPVQEFTVPGSKSTATISGLKPGVDYTITVYAVTGQPMYGQPMYPISINYRTSGGGGSGGGGSEFLPNITILATGGTIAGGGDSATKSNYTAGKVGVENLVNAVPQLKDIANVKGEQVVNIGSQDMNDDVWLTLAKKINTDCDKTDGFVITHGTDTMEETAYFLDLTVKCDKPVVMVGAMRPSTSMSADGPFNLYNAVVTAADKASANRGVLVVMNDTVLDGRDVTKTNTTDVATFKSVNYGPLGYIHNGKIDYQRTPARKHTSDTPFDVSKLNELPKVGIVYNYANASDLPAKALVDAGYDGIVSAGVGNGNLYKTVFDTLATAAKNGTAVVRSSRVPTGATTQDVEVDDAKYGFVASGTLNPQKARVLLQLALTQTKDPQQIQQIFNQYGSSGGGGSGGGGSASPAAPAPASPAAPAPSAPAASPAAPAPASPAAPAPSAPAASPAAPAPASPAAPAPSAPAASPAAPAPASPAAPAPSAPAASPAAPAPASPAAPAPSAPAASPAAPAPASPAAPAPSAPAASPAAPAPASPAAPAPSAPAASPAAPAPASPAAPAPSAPAASPAAPAPASPAAPAPSAPAASPAAPAPASPAAPAPSAPAAGSHHHHHH
For B1, the binding to cells result in the data set with ecto-CRT on MC-38 cells (setting [3]) is on record as “efficiently bound”. Moreover, the “binding after pretreatment with anti-CRT antibodies” value in the data set with ecto-CRT on MC-38 cells is on record as “significantly inhibited”. In addition, the binding to cells result with ecto-CRT on MC-38 cells (setting [4]) is listed as “not”. In addition, in data set [1], the Kd was found to be 2.07 ± 0.173 nM and the “affinity for CRT relative to single CRT3/CRT4 monobody” value was “four times higher”. In data set [2], this molecule had a half-life of 9.34 ± 0.91 h.

B2: CRT4LP: PASylated L-ASNase fused with CRT-targeting CRT4 monobody at N-terminus and PAS200 tag plus His6 tag at C-terminus (protein)
chain: MASVSDVPRDLEVVAATPTSLLISWGQPMYGQPMYYYRITYGETGGNSPVQEFTVPGSKSTATISGLKPGVDYTITVYAVTKLGFFKRPISINYRTSGGGGSGGGGSEFLPNITILATGGTIAGGGDSATKSNYTAGKVGVENLVNAVPQLKDIANVKGEQVVNIGSQDMNDDVWLTLAKKINTDCDKTDGFVITHGTDTMEETAYFLDLTVKCDKPVVMVGAMRPSTSMSADGPFNLYNAVVTAADKASANRGVLVVMNDTVLDGRDVTKTNTTDVATFKSVNYGPLGYIHNGKIDYQRTPARKHTSDTPFDVSKLNELPKVGIVYNYANASDLPAKALVDAGYDGIVSAGVGNGNLYKTVFDTLATAAKNGTAVVRSSRVPTGATTQDVEVDDAKYGFVASGTLNPQKARVLLQLALTQTKDPQQIQQIFNQYGSSGGGGSGGGGSASPAAPAPASPAAPAPSAPAASPAAPAPASPAAPAPSAPAASPAAPAPASPAAPAPSAPAASPAAPAPASPAAPAPSAPAASPAAPAPASPAAPAPSAPAASPAAPAPASPAAPAPSAPAASPAAPAPASPAAPAPSAPAASPAAPAPASPAAPAPSAPAASPAAPAPASPAAPAPSAPAASPAAPAPASPAAPAPSAPAAGSHHHHHH
As to B2, in the data set with ecto-CRT on MC-38 cells (setting [3]), the binding to cells result is listed as “efficiently bound”. Moreover, the “binding after pretreatment with anti-CRT antibodies” value in the data set with ecto-CRT on MC-38 cells was “significantly inhibited”. In addition, the binding to cells entry with ecto-CRT on MC-38 cells (setting [4]) was “not”. Also, in data set [1], the Kd amounted to 2.3 ± 0.166 nM and the “affinity for CRT relative to single CRT3/CRT4 monobody” value was “four times higher”.

Source of the values: patent US20250376507A1, “NOVEL TUMOR ANTIGEN-TARGETING ANTICANCER AGENT” (INDUSTRY FOUNDATION OF CHONNAM NATIONAL UNIVERSITY, priority 2022, published 2025).
